In the nanobody polyreactivity screen of Harvey et al. (2022):

Assay: yeast display, Sf9 membrane polyspecificity reagent, FACS + sequencing; frameworks hold sequencing errors
Method in brief: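 Synthetic nanobody libraries on Saccharomyces cerevisiae BJ5465 were galactose-induced for 36–48 hours, stained 1 hour at 4 °C with 10% biotinylated, detergent-solubilized Sf9 membrane reagent and enriched on streptavidin microbeads. FACS then separated cells into low and high (top ~1%) gates by anti-HA (expression) and streptavidin (reagent binding) fluorescence. Genes were colony-PCR amplified, MiSeq 2 × 250 sequenced and CDR-length filtered. A clone's polyreactivity label is that of its gate of origin.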

Which “polyreactivity (PSR sort gate)” value does the source give for “QVQLVESGGGLVQAGGSLRLSCAASGFTFVSYAMGWYRQAPGKERELVAAISSRVGSTYYADSVKGRFTISRDNAKNTVYLQMNSLKPEDTAVYYCAASFTDRVTLDYFRSYAFEYWGQGTQVTVSS” here?
The value was “low polyreactivity”.

With “QVQLVESGGGLVQAGGSLRLSCAASGIIFDSYTMGWYRQAPGKERELVAAISVSGGSTYYADSVKGRFTISRDNAKNTVYLQMNSLKPEDTAVYYCATVPSLPDYDSWGQGTQVTVSS” as the sequence, how does the “polyreactivity (PSR sort gate)” value read?
The value was “low polyreactivity”.

Which “polyreactivity (PSR sort gate)” value does the source give for “QVQLVESGGGLVQAGGSLRLSCAASGSTFVPNAMGWYRQAPGKERELVAALTFSGGTTYYADSVKGRFTISRDNAKNTVYLQMNSLKPEGTAVYYCAADYFSNLWWSGHAWRYYYWGQGTQVTVSS” here?
The value was “low polyreactivity”.

With “QVQLVESGGGLVQAGGSLRLSCAASGRTFGRYLMGWYRQAPGKERLLVAAISFSGTGTYYADSVKGRFTISRDNAKYTVYLQMNSLKPEDTAVYYCAKGVTRVQYKHYYWGQGTQVTVSS” as the sequence, how does the “polyreactivity (PSR sort gate)” value read?
The value was “high polyreactivity”.

With “QVQLVESGGGLVQSGGSLRLSCAASGSTLSVYVMGWYRQAPGKERELVARIRSGGNTYYADSVKGRFTISRDNAKNTVYLLMNSLKPEDTAVYYCNADPSTGWYKYDYWGQGTQVTVSS” as the sequence, how does the “polyreactivity (PSR sort gate)” value read?
The value was “high polyreactivity”.

Which “polyreactivity (PSR sort gate)” value does the source give for “QVQLVESGGGLVQAGGTLSLSCAASGRTFVSYTMGWYRQAPGKERELVAAINYSVASTNYADSVKGRFTISRDNAKNSVYLQMNSLKPEDTAVYYCNRASAVWGQGTQVTVSS” here?
Its value is “low polyreactivity”.

For “QVQLVESGGGLVQAGGSLRLSCAASGRIFRYYTMGWYRQAPGKERELVAAITSSSGSTYYADSVKGRFTISRDNAKNTVYLQMNSLKPEDTAVYYCNAVRYTTQTPKVDYGYWGQGTQVTVSS”, which “polyreactivity (PSR sort gate)” value is on record?
Its value is “high polyreactivity”.

For “QVQLVESGRGLVQAGGSLRLSCAASGSIFYYLAKGWYRQAPGKERELVAVIDFSGASTSYADSVKGRFTISRDNAKNTVYLQMNSLKPEDTAVYYCAADRFRRKVRVDYWGQGTQVTVSS”, which “polyreactivity (PSR sort gate)” value is on record?
Its value is “low polyreactivity”.

For “QVQLVESGGGLVQAGGRLRLSCAASGLIFTWNAMGWYRQAPGKERELVAAISTGGSTSYADSVKGRFTISRDNAMNTVYLQMNSMKPEDTAVYYCARDSSIWSHGSWYDYWGQGTQVTVSS”, which “polyreactivity (PSR sort gate)” value is on record?
The value was “low polyreactivity”.

Which “polyreactivity (PSR sort gate)” value does the source give for “QVQLVESGGGLVQAGGSLRLSCAASGSIQGKNAMRWYRPAPGKERELVAAISTRGGSTYYADSVKGRFTISRDNAKNSVYFQMNSLKPEDTAVYYCNARWREYKAKWGSRYDYWGQGTQVTVSS” here?
The value was “high polyreactivity”.

With “LVQLVESGGGLVEAGGSLRLSWAASGIIFYYYAMGWYRQAPGKEREFVAGIRWSSGSTYYADSVKGRFTISRDNAKNTVYLQMNSLKPEDTAVYYCAAAYLSWYGGYYYWGQGTQVTVSS” as the sequence, how does the “polyreactivity (PSR sort gate)” value read?
The value was “low polyreactivity”.

For “QVQLVESGGGLVQAGGSLRLSCAASGITFSYYAMGWYRQAPGKERELVAAINSGGGSTYYADSVKGRFTISRDNAKNTVYLQMNSLKPEDTAVYYCAARYRSRYDYYYDRDYWGQGTQVTVSS”, which “polyreactivity (PSR sort gate)” value is on record?
The value was “low polyreactivity”.

With “QVQLVESGGGLVQAGGSLRLSCASSGSTFPSNAMGWYRQAPGKERELVAAISRSGGSTYYADSVKGRFTISRDNAKNTVYLQMNSLKPEDTAVYYCAVQVRPNYGGTRIHRGGYDYWGQGTQVTVSS” as the sequence, how does the “polyreactivity (PSR sort gate)” value read?
The value was “low polyreactivity”.

Which “polyreactivity (PSR sort gate)” value does the source give for “QVQLVESGGGLVQAGGSLRLSCAASGFIFSNNAMGWYIEAPGKERELVAVINGGGSTYYADSVKGRFTISRDNAKNTVYLQMNSLKPEDTAVYYCARKSWPKEGRVDPGYDYWGQGTQVTVSS” here?
The value was “low polyreactivity”.

Which “polyreactivity (PSR sort gate)” value does the source give for “QVQLVESGGGLFQEGGSLRLSCAASGSIFTFYAMGWYRQAPGKERELVAAITSGGSTTYADSVKGRFTISRDNAKNTVYLQMNSLKREDTAVFYCNAESWWGYYYWGQVTQVTVSS” here?
Its value is “high polyreactivity”.

Which “polyreactivity (PSR sort gate)” value does the source give for “QVQLVESGGGLVQAGGSLRLSCAASGRNFSLYAMGWYRQAPGKERELVAAISRGGSTYYADSVKGRFTISRDNAKNTVYLQMNSLKPEDTAVYYCAAAPDYRAEYDYWGQGTQVTVSS” here?
The value was “low polyreactivity”.

Which “polyreactivity (PSR sort gate)” value does the source give for “QVQLVESGGGLVQAGGSLRLSCAASGRIFYLYAMGWYRQAPGKERELVASINSGDSTHYADSVKGRFTISRDNAKNTVYLQMNSLKPEDTAVYYCATRRYTRSRWYDYWGQGTQVTVSS” here?
The value was “low polyreactivity”.

For “QVQLVESGGGLVQAGGSLRLSCAASGYIVRNAMGWYRQAPGKERELVAAISRRGGSTYYADSVKGRFTISRDNAKNTVYLQMNSLKPEDTAVYYCAKDKVIPSFDADYYYWGQGTQVTVSS”, which “polyreactivity (PSR sort gate)” value is on record?
The value was “high polyreactivity”.

For “QVQLVESGGGLVQAGVSLRLSCAASGSIFGGYAMGWYRQAPGKERELVAVISTRGGRTYYADSVKGRFTISRDNAKYTVYLQMNSLKPEDTAVYYCAANRQYTEYNYWGQGTQVTVSS”, which “polyreactivity (PSR sort gate)” value is on record?
The value was “high polyreactivity”.

For “QDQLVESGGGLVQAGGSLRLSCAASGITFYTYAMGWSRQAPGKERELVAAISRSGGSTYYADSVKGRITISRDNAKYTVYLQMNSLKPEDSAVYYCAAVYRGRDMDYWGLGTQVTVSS”, which “polyreactivity (PSR sort gate)” value is on record?
The value was “high polyreactivity”.

With “QVQLVESGGGLVQAGGSLRLSCAASGGTFGYNAMGWYRQAPGKERELVADITRGGITYYADSVKGRFTISRDNAKNTVYLQMNSLKPEDTAVYYCNAEYYVFSYSYGGVLRGDYWGQGTQVTVSS” as the sequence, how does the “polyreactivity (PSR sort gate)” value read?
Its value is “high polyreactivity”.

With “QVQLVESGGGLVQAGGSLRLSCAASGITFDYYAMGWYRPAPGKERELVAAISGSGARTYYADSVKGRFTISRDTAKNTFYLQMNSLKPEDTAVYYCAAEYYTVPPGGIEDYWGQGTQVTVSS” as the sequence, how does the “polyreactivity (PSR sort gate)” value read?
The value was “high polyreactivity”.

For “QVQLVESGGGLVQAGGSLRLSCAASGYTFKAYAMGWYRQAPGKERELVAAISWSGARTYYADSVKGRFTISRDNAKNTVYLQMNSLKPEDTAVYYCAASNAVYAGRSYRDEFWGQGTQVTVSS”, which “polyreactivity (PSR sort gate)” value is on record?
The value was “high polyreactivity”.

For “QVQLVESGGGLVQAGGSLRLSCAASVRIFFRYAMGWYRQAPGKERELVAAIRKSGGSTYYADSVKGRFTISRDNAKNTVYFQMNSLKPEDTAVYYCAADVYYYYGRKYNYWGQGTQVTVSS”, which “polyreactivity (PSR sort gate)” value is on record?
Its value is “low polyreactivity”.

Which “polyreactivity (PSR sort gate)” value does the source give for “QVQLVESAGGLVQAGGSLRLICAASGFTSNVYTMGWYRQAPGKERELVAAITSGGSTNYADSVKGRFTISRDNAKNTVYLQMNSLKPEDTAVYYCNTDVKEYFHHEGYPLRWEYDYWGQGTQVTVSS” here?
Its value is “low polyreactivity”.

Which “polyreactivity (PSR sort gate)” value does the source give for “QVQLVESGGGLVQAGGSLRLSCAASGFIFRYYTMGWYRQAPGKERELVAAISYSGGRTYYADSVKGRFTISRDNAKNTVYLQMNSVKPEDTAVYYCAARQGYVDDDYWGQGTQVTVSS” here?
The value was “high polyreactivity”.

For “QVQLVESGGGLVQAGGSLRLSCAASGFIFPRYAMGWYRQAPGTERELVAAISRGGRTNYADSVKGRFTISRDNAKNTVYFQMNSLKPEDTAVYYCAKKYYLSGSRADDSWGQGTQVTVSS”, which “polyreactivity (PSR sort gate)” value is on record?
The value was “high polyreactivity”.

With “QVQLVESCGGLVQAGGSLRLSCAASGRTFRYYAMGWYRQAPWKERELVAAIRRGGSTTYADSVKGRFTISRDNAKNTVYLQMNSLKPEDTAVYYCAARYPGTRGDGYWGQGTQVTVSS” as the sequence, how does the “polyreactivity (PSR sort gate)” value read?
Its value is “high polyreactivity”.

For “QVQLVESGGGLVQAGGSLRLSCAASGIIFVENAMGWYRQAPGKERELVAAISWDGGSTYYADSVKGRFTISRDNAKNTVYLQMNSLKPEDTAVYYCAADLTISYSQEYYYWGQGTQVTVSS”, which “polyreactivity (PSR sort gate)” value is on record?
The value was “low polyreactivity”.

Which “polyreactivity (PSR sort gate)” value does the source give for “QVQLVESGGGLVQAGGSLRLSCAASGRTFYLYGMGWYRQAHGKETELVAAITLSDGSTYYADSVKGRFTISRDNAKNTVYLQMNSLKPEDTAVYYCAARDYPFPYAMNYWGQGTQVTVSS” here?
Its value is “low polyreactivity”.

Which “polyreactivity (PSR sort gate)” value does the source give for “QVHLVESGGGLVQAGGSLRLSCDASGSIFPVNAMGWYRQAPGKERELVATITWRGGRTYYADSVKGRFTISRDNAKNTVYLQMNSLKPEDTAVYYCAARLLYRHFGYWGQGTQVTVSS” here?
Its value is “high polyreactivity”.
